# Measurements published in patent US20130210034A1, “COMPLEX PHOSPHOPROTEIN ACTIVATION PROFILES” (BECKMAN COULTER, INC., priority 2005, published 2013).
# Several values for one entry are separate records, joined by “and”; a condition that tells them apart may be missing. Equal values may be shown once.
# B1: FMS-Like Tyrosine Kinase 3 (FLT-3) ligand (protein, UniProt P49771 27-235, looked up)
# Fms-related tyrosine kinase 3 …: TQDCSFQHSPISSDFAVKIRELSDYLLQDYPVTVASNLQDEELCGGLWRLVLAQRWMERLKTVAGSKMQGLLERVNTEIHFVTKCAFQPPPSCLRFVQTNISRLLQETSEQLVALKPWITRQNFSRCLELQCQPDSSTLPPPWSPRPLEATAPTAPQPPLLLLLLLPVGLLLLAAAWCLHWQRTRRRTPRPGEQVPPVPSPQDLLLVEH
# Experiments:
# Assay in all cases: Cytokine-stimulated phosphorylation in immunophenotypically defined cell populations from healthy donor BM (flow cytometry);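 for pAKT S/N ratio: Phosphoprotein MFI normalized to lymphocyte MFI as internal negative control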;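 for pERK S/N ratio: Phosphoprotein MFI normalized to lymphocyte MFI as internal negative control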;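 for pSTAT3 S/N ratio: Phosphoprotein MFI normalized to lymphocyte MFI as internal negative control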;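 for pSTAT5 S/N ratio: Phosphoprotein MFI normalized to lymphocyte MFI as internal negative control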
# Format in all cases: cell-based, human
# pERK = conditions: for pERK Percent (%) Responding Cells, Mean / pERK S/N ratio: healthy donor BM, mean ± SD
# Protocol: (§1) Bone marrow (BM) samples were collected in 7.5 mL Iscove's modified Dulbecco's medium (IMDM) supplemented with 100U penicillin, 0.01 mg/mL streptomycin, and 70 μg/mL heparin sodium salt from 10 patients undergoing hip replacement surgery, who were otherwise healthy. These patients were from a pool of surgery patients, age 49 to 77, and represented […] patients. […] These BM samples were rinsed twice with IMDM to release cells, filtered using a 100 μm Nylon cell strainer to remove marrow particles, and centrifuged for at RT fro 7 minutes at 200 g. The cell pellet was washed twice with sterile IMDM to remove traces of fat and re-suspended in IMDM to a concentration of 3×10^7 cells/mL.
# (§2) To assess the signal transduction response after growth factor simulation, a series comprising two sets of tubes including about 3×10^6 cells/100 μL were incubated at 37° C. for 30 minutes. After this pre-incubation period, tubes with then processes with either a stimulant or inhibitor. […] To examine the effects of protein phosphorylation inhibition, tubes were incubated with an inhibitor cocktail comprising 100 μM/100 μL UO126, 1 μM/100 μL LY294002, and 1 μM/100 μL rapamycin. One unstimulated tube receiving no stimulant or inhibitor was processed to assess basal levels of phospho-protein expression. After stimulation the cells were immediately fixed in 10% formaldehyde solution at 37° C. Pre-labeling with CD13, CD16 and CD64 antibodies was carried out 20 minutes prior to formaldehyde fixation. After fixation, one set of tubes was permeabilized without methanol for pAKT, pERK and pS6 staining and the other for 80% methanol permeabilized for pSTAT3 and pSTAT5 staining. After permeablization, the cells were washed in PBS with 2% BSA and blocked by re-suspended in 75 μL of PBS comprising 25% heat inactivated normal mouse serum, 25% normal rabbit serum. To stain cells with fluorescent conjugated monoclonal antibodies, samples were incubated on ice for 45 minutes in 100 μL of an antibody staining solution including either: 1) CD15-Pacific Orange, CD34-Phycoerythrin-Texas Red, CD117-Phycoerythrin-Cyanin 5.5, CD45-Allophycocyanin-Alexa Fluor 750 (or CD45-Pacific Orange, in which case CD15-Pacific Orange was omitted), pS6-Pacific Blue, pERK-Alexa Fluor 488 and pAKT-Alexa Fluor 647 or 2) CD15-Pacific Orange, CD34-Phycoerythrin-Texas Red, CD117-Phycoerythrin-Cyanin 5.5, CD45-Allophycocyanin-Alexa Fluor 750 or CD45-Pacific Blue, pSTAT3-Alexa Fluor 488 and pSTAT5-Phycoerythrin. The stained cells were washed twice with ice cold PBS containing 2% BSA and centrifuged at 800 g for 6 minutes at 4° C. The supernatant was discarded and cells re-suspended in 250 μL of chilled wash buffer for data acquisition. Stained cells were examined using either GALIOS flow cytometer (Beckman Coulter) or CYAN ADP (Beckman Coulter) equipped with 488 nm, 405 nm and 635 nm lasers to detect the degree of fluorescence. Data were analyzed using FCS Express (De Novo Software, CA) analysis software.
# (§3) Specific phosphoprotein expression of pERK, pS6, pAKT, pSTAT5, and pSTAT3 was examined in seven discrete phenotypically defined populations based on 7-color immunophenotyping (FIG. 1). The percent of responding (phosphorprotein positive) cells for each of these populations was determined from individual single parameter histograms based on a fixed integration region set on the inhibitor treated control at about 3% positives.
# pAKT = conditions: for pAKT Percent (%) Responding Cells, Mean / pAKT S/N ratio: healthy donor BM, mean ± SD
# Protocol: as §1, §2, §3
# pSTAT3 = conditions: healthy donor BM, mean ± SD
# Protocol: as §1, §2, §3
# pSTAT5 = conditions: healthy donor BM, mean ± SD
# Protocol: as §1, §2, §3
# pS6 = conditions: healthy donor BM, mean ± SD
# Protocol: as §1, §2, §3
molecule,measurement,setting,value
B1,"pERK Percent (%) Responding Cells, Mean",pERK; CD34^+ (CD34^+/CD117^+ cells),76.9% and 76.9 ± 11.0%
same,pERK S/N ratio,pERK; CD34^+ (CD34^+/CD117^+ cells),11.9 ± 3.6
same,"pERK Percent (%) Responding Cells, Mean",pERK; CD117^+ (CD34^−/CD117^+ cells),37.1 ± 8.8%
same,pERK S/N ratio,pERK; CD117^+ (CD34^−/CD117^+ cells),10.9 ± 2.9
same,"pERK Percent (%) Responding Cells, Mean","pERK; G1, immature myeloid cells",3.3 ± 5.4%
same,pERK S/N ratio,"pERK; G1, immature myeloid cells",2.9 ± 0.7
same,"pERK Percent (%) Responding Cells, Mean","pERK; G2, intermediate myeloid cells",6.3 ± 11.2%
same,pERK S/N ratio,"pERK; G2, intermediate myeloid cells",2.8 ± 0.6
same,"pERK Percent (%) Responding Cells, Mean","pERK; G3, mature myeloid cells",9.1 ± 15.6%
same,pERK S/N ratio,"pERK; G3, mature myeloid cells",3.6 ± 1.3
same,pERK S/N ratio,"pERK; Mono, monocytes",12.8 and 12.8 ± 6.7
same,"pERK, Normal Sample","pERK; Table 7 comparison value, matches percent responding CD34^+ cells of Tables 1-5",76.9
same,"pAKT Percent (%) Responding Cells, Mean",pAKT; CD34^+ (CD34^+/CD117^+ cells),34.3% and 34.3 ± 19.4%
same,pAKT S/N ratio,pAKT; CD34^+ (CD34^+/CD117^+ cells),7.2 ± 4.9
same,"pAKT Percent (%) Responding Cells, Mean",pAKT; CD117^+ (CD34^−/CD117^+ cells),20.5 ± 28.3%
same,pAKT S/N ratio,pAKT; CD117^+ (CD34^−/CD117^+ cells),2.8 ± 2.9
same,"pAKT Percent (%) Responding Cells, Mean","pAKT; G1, immature myeloid cells",3.0 ± 4.3%
same,pAKT S/N ratio,"pAKT; G1, immature myeloid cells",2.3 ± 1.1
same,"pAKT Percent (%) Responding Cells, Mean","pAKT; G2, intermediate myeloid cells",3.6 ± 5.0%
same,pAKT S/N ratio,"pAKT; G2, intermediate myeloid cells",2.4 ± 1.0
same,"pAKT Percent (%) Responding Cells, Mean","pAKT; G3, mature myeloid cells",3.8 ± 2.5%
same,pAKT S/N ratio,"pAKT; G3, mature myeloid cells",2.7 ± 1.3
same,"pAKT Percent (%) Responding Cells, Mean","pAKT; Mono, monocytes",21.5% and 21.5 ± 23.8%
same,pAKT S/N ratio,"pAKT; Mono, monocytes",4.2 ± 3.0
same,"pAKT, Normal Sample",pAKT; Table 7 comparison value,76.9
same,"pSTAT3 Percent (%) Responding Cells, Mean",pSTAT3; CD34^+ (CD34^+/CD117^+ cells),13.5 ± 9.4%
same,pSTAT3 S/N ratio,pSTAT3; CD34^+ (CD34^+/CD117^+ cells),3.5 ± 3.3
same,"pSTAT3 Percent (%) Responding Cells, Mean",pSTAT3; CD117^+ (CD34^−/CD117^+ cells),3.5 ± 2.2%
same,pSTAT3 S/N ratio,pSTAT3; CD117^+ (CD34^−/CD117^+ cells),2.6 ± 0.6
same,"pSTAT3 Percent (%) Responding Cells, Mean","pSTAT3; G1, immature myeloid cells",2.7 ± 3.3%
same,pSTAT3 S/N ratio,"pSTAT3; G1, immature myeloid cells",3.4 ± 0.4
same,"pSTAT3 Percent (%) Responding Cells, Mean","pSTAT3; G2, intermediate myeloid cells",1.8 ± 1.4%
same,pSTAT3 S/N ratio,"pSTAT3; G2, intermediate myeloid cells",3.3 ± 0.6
same,"pSTAT3 Percent (%) Responding Cells, Mean","pSTAT3; G3, mature myeloid cells",5.3 ± 5.6%
same,pSTAT3 S/N ratio,"pSTAT3; G3, mature myeloid cells",3.7 ± 0.5
same,"pSTAT3 Percent (%) Responding Cells, Mean","pSTAT3; Mono, monocytes",4.8 ± 3.9%
same,pSTAT3 S/N ratio,"pSTAT3; Mono, monocytes",2.6 ± 0.4
same,"pSTAT5 Percent (%) Responding Cells, Mean",pSTAT5; CD34^+ (CD34^+/CD117^+ cells),16.1 ± 6.1%
same,pSTAT5 S/N ratio,pSTAT5; CD34^+ (CD34^+/CD117^+ cells),1.9 ± 1.4
same,"pSTAT5 Percent (%) Responding Cells, Mean",pSTAT5; CD117^+ (CD34^−/CD117^+ cells),5.7 ± 5.8%
same,pSTAT5 S/N ratio,pSTAT5; CD117^+ (CD34^−/CD117^+ cells),2.1 ± 0.6
same,"pSTAT5 Percent (%) Responding Cells, Mean","pSTAT5; G1, immature myeloid cells",2.7 ± 2.5%
same,pSTAT5 S/N ratio,"pSTAT5; G1, immature myeloid cells",2.6 ± 0.5
same,"pSTAT5 Percent (%) Responding Cells, Mean","pSTAT5; G2, intermediate myeloid cells",2.0 ± 1.6%
same,pSTAT5 S/N ratio,"pSTAT5; G2, intermediate myeloid cells",2.7 ± 0.5
same,"pSTAT5 Percent (%) Responding Cells, Mean","pSTAT5; G3, mature myeloid cells",3.1 ± 1.0%
same,pSTAT5 S/N ratio,"pSTAT5; G3, mature myeloid cells",3.2 ± 0.7
same,"pSTAT5 Percent (%) Responding Cells, Mean","pSTAT5; Mono, monocytes",3.1 ± 1.9%
same,pSTAT5 S/N ratio,"pSTAT5; Mono, monocytes",3.9 ± 4.9
same,"pS6 Percent (%) Responding Cells, Mean",pS6; CD34^+ (CD34^+/CD117^+ cells),68.8% and 68.8 ± 21.1%
same,pS6 S/N ratio,pS6; CD34^+ (CD34^+/CD117^+ cells),31.1 ± 26.0
same,"pS6 Percent (%) Responding Cells, Mean",pS6; CD117^+ (CD34^−/CD117^+ cells),36.1 ± 16.4%
same,pS6 S/N ratio,pS6; CD117^+ (CD34^−/CD117^+ cells),44.4 ± 44.4
same,"pS6 Percent (%) Responding Cells, Mean","pS6; G1, immature myeloid cells",2.1 ± 1.5%
same,pS6 S/N ratio,"pS6; G1, immature myeloid cells",3.3 ± 1.9
same,"pS6 Percent (%) Responding Cells, Mean","pS6; G2, intermediate myeloid cells",2.5 ± 1.9%
same,pS6 S/N ratio,"pS6; G2, intermediate myeloid cells",2.9 ± 1.8
same,"pS6 Percent (%) Responding Cells, Mean","pS6; G3, mature myeloid cells",3.9 ± 2.7%
same,pS6 S/N ratio,"pS6; G3, mature myeloid cells",3.6 ± 2.3
same,pS6 S/N ratio,"pS6; Mono, monocytes",33.4 and 33.4 ± 30.5
